Patent USRE50631 (VELOSBIO, dated 2025)

What was measured:
[1] = molecular target: T1, human receptor tyrosine kinase like orphan receptor 1 (ROR1) (human, UniProt Q01973 30-937); experiment: flow cytometry on Jeko-1 cells (FIG. 3B)
T1 construct: whole, on cells; Target in all assays is endogenous ROR1 on human tumor cell lines; the cell line is named under assay; also called cell surface ROR1

[2] = molecular target: T1, human receptor tyrosine kinase like …; experiment: flow cytometry on Jeko-1 cells (FIG. 3A)
[3] = molecular target: T1, human receptor tyrosine kinase like …; experiment: cell-based or functional assay
[4] = molecular target: T1, human receptor tyrosine kinase like …; experiment: binding to Jeko cells; column 'ADC-M Binding KD (nM)', method not described
[5] = molecular target: T1, human receptor tyrosine kinase like …; experiment: binding to Jeko cells; column 'ADC-O Binding KD (nM)', method not described
[6] = molecular target: T1, human receptor tyrosine kinase like …; experiment: binding to Jeko cells; column 'ADC-P Binding KD (nM)', method not described
[7] = molecular target: T1, human receptor tyrosine kinase like …; experiment: binding to Jeko cells; column 'ADC-Q Binding KD (nM)', method not described
[8] = molecular target: T1, human receptor tyrosine kinase like …; experiment: binding to Jeko cells; column 'ADC-N Binding KD (nM)', method not described
[9] = molecular target: T1, human receptor tyrosine kinase like …; experiment: binding to Jeko cells; column 'ADC-L Binding KD (nM)', method not described
[10] = molecular target: T1, human receptor tyrosine kinase like …; experiment: flow cytometry on Jeko-1 cells
[11] = molecular target: T1, human receptor tyrosine kinase like …; experiment: flow cytometry on MDA-MB-231 cells
[12] = molecular target: T1, human receptor tyrosine kinase like …; experiment: binding to Jeko-1 cells; column 'ADC-A Binding KD (nM)', method not described
[13] = molecular target: T1, human receptor tyrosine kinase like …; experiment: binding to MDA-MB-231 cells; column 'ADC-A Binding KD (nM)', method not described
[14] = molecular target: T1, human receptor tyrosine kinase like …; experiment: flow cytometry on Jeko-1 cells, PE anti-human IgG secondary, % maximal binding
[15] = molecular target: T1, human receptor tyrosine kinase like …; experiment: flow cytometry on MDA-MB-231 cells, PE anti-human IgG secondary, % maximal binding
[16] = molecular target: T1, human receptor tyrosine kinase like …; experiment: binding to Jeko cells; column 'ADC-R Binding KD (nM)', method not described

T1 sequence (Q01973 30-937): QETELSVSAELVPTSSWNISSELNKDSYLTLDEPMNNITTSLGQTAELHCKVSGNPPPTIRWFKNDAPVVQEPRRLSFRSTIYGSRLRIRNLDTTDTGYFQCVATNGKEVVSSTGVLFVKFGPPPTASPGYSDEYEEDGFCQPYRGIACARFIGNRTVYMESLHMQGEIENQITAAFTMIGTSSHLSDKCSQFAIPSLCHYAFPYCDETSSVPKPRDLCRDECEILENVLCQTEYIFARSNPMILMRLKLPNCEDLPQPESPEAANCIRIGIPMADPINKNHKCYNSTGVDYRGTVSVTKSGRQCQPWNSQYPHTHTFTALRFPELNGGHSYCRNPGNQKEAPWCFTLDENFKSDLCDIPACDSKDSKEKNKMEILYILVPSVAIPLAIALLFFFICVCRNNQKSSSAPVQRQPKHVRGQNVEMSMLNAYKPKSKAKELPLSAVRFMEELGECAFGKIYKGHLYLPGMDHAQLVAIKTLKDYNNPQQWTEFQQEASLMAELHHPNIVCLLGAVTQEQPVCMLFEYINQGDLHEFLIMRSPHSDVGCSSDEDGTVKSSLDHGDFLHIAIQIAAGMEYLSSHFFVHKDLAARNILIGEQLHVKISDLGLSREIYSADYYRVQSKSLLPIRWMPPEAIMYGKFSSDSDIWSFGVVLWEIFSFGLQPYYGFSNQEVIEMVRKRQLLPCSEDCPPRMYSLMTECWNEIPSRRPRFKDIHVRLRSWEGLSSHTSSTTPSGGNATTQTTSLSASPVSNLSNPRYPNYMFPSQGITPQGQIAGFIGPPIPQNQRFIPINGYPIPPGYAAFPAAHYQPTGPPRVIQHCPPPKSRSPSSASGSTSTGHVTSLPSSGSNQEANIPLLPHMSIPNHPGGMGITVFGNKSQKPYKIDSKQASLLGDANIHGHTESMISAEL

B1: D10 (antibody, V domains shown)
VH: QVQLKESGPGLVAPSQTLSITCTVSGFSLTSYGVHWVRQPPGKGLEWLGVIWAGGFTNYNSALKSRLSISKDNSKSQVLLKMTSLQTDDTAMYYCARRGSSYSMDYWGQGTSVIVSS
VL: EIVLSQSPAITAASLGQKVTITCSASSNVSYIHWYQQRSGTSPRPWIYEISKLASGVPVRFSGSGSGTSYSLTISSMEAEDAAIYYCQQWNYPLITFGSGTKLEIQ
notes: also called antibody D10
EC50 [1]: 0.25 µg/mL

B2: ADC-S (antibody, V domains shown)
VH: B1 VH
VL: B1 VL
modifications: MAL-VC-PAB-MMAE bonded via cysteine residues of the antibody (positions not stated)
notes: Antibody-drug conjugate of D10; also called D10-MAL-VC-PAB-MMAE
EC50 [1]: 0.15 µg/mL

B3: 4A5 (antibody, V domains shown)
VH: EVKLVESGGGLVKPGGSLKLSCAASGFTFSSYAMSWVRQIPEKRLEWVASISRGGTTYYPDSVKGRFTISRDNVRNILYLQMSSLRSEDTAMYYCGRYDYDGYYAMDYWGQGTSVTVSS
VL: DIKMTQSPSSMYASLGERVTITCKASPDINSYLSWFQQKPGKSPKTLIYRANRLVDGVPSRFSGGGSGQDYSLTINSLEYEDMGIYYCLQYDEFPYTFGGGTKLEMK
notes: also called anti-ROR1 antibody 4A5
EC50 [2]: 0.121 µg/mL

B4: ADC-T (antibody, V domains shown)
VH: B3 VH
VL: B3 VL
modifications: MAL-VC-PAB-MMAE bonded via cysteine residues of the antibody (positions not stated)
notes: Antibody-drug conjugate of 4A5; also called 4A5-MAL-VC-PAB-MMAE
EC50 [2]: 0.193 µg/mL

B5: ADC-E (antibody, human IgG1, kappa, V domains shown)
VH: QVQLQESGPGLVKPSQTLSLTCTVSGYAFTAYNIHWVRQAPGQGLEWMGSFDPYDGGSSYNQKFKDRLTISKDTSKNQVVLTMTNMDPVDTATYYCARGWYYFDYWGHGTLVTVSS
VL: DIVMTQTPLSLPVTPGEPASISCRASKSISKYLAWYQQKPGQAPRLLIYSGSTLQSGIPPRFSGSGYGTDFTLTINNIESEDAAYYFCQQHDESPYTFGEGTKVEIKR
modifications: SC-VC-PAB-MMAE bonded via lysine residues of the antibody (chain and positions not stated)
IC50, cell viability (CellTiter-Glo, 72 h), Bt549 cells [3]: 74.4 nM
IC50, cell viability (CellTiter-Glo, 72 h), DOHH2 cells [3]: 89.6 nM
IC50, cell viability (CellTiter-Glo, 72 h), HBL-1 cells [3]: 147 nM
IC50, cell viability (CellTiter-Glo, 72 h), JHOM1 cells [3]: 32.9 nM
IC50, cell viability (CellTiter-Glo, 72 h), MDA-MB-468 cells [3]: 80.1 nM
IC50, cell viability (CellTiter-Glo, 72 h), SKOvr3 cells [3]: 201 nM
IC50, cell viability (CellTiter-Glo, 72 h), TMD-8 cells [3]: 94.3 nM
IC50, cell viability (CellTiter-Glo, 72 h), TOV112D cells [3]: 57.8 nM

B6: ADC-M (antibody, human IgG1, kappa, V domains shown)
VH: B5 VH
VL: B5 VL
modifications: MAL-Phe-C4-VC-PAB-MMAE bonded via cysteine residues of the antibody (chain and positions not stated)
notes: Antibody-drug conjugate of Ab1; also called Ab1-MAL-Phe-C4-VC-PAB-MMAE
Kd [4]: 0.12 nM

B7: ADC-O (antibody, human IgG1, kappa, V domains shown)
VH: B5 VH
VL: B5 VL
modifications: MAL-C2-Gly3-EDA-PNU-159682 bonded via cysteine residues of the antibody (chain and positions not stated)
notes: Antibody-drug conjugate of Ab1; also called Ab1-MAL-C2-Gly3-EDA-PNU-159682
Kd [5]: 0.12 nM

B8: ADC-P (antibody, human IgG1, kappa, V domains shown)
VH: B5 VH
VL: B5 VL
modifications: MAL-Phe-C4-VC-PAB-DMEA-PNU-159682 bonded via cysteine residues of the antibody (chain and positions not stated)
notes: Antibody-drug conjugate of Ab1; also called Ab1-MAL-Phe-C4-VC-PAB-DMEA-PNU-159682
Kd [6]: 0.11 nM

B9: ADC-C (antibody, human IgG1, kappa, V domains shown)
VH: B5 VH
VL: B5 VL
modifications: MAL-VC-PAB-DM1 bonded via cysteine residues of the antibody (chain and positions not stated)
IC50, cell viability (CellTiter-Glo, 72 h), A2008 cells [3]: > 1000 nM
IC50, cell viability (CellTiter-Glo, 72 h), Bt549 cells [3]: > 1000 nM
IC50, cell viability (CellTiter-Glo, 72 h), DOHH2 cells [3]: > 1000 nM
IC50, cell viability (CellTiter-Glo, 72 h), HBL-1 cells [3]: > 1000 nM
IC50, cell viability (CellTiter-Glo, 72 h), HCC1187 cells [3]: > 1000 nM
IC50, cell viability (CellTiter-Glo, 72 h), JHOM1 cells [3]: > 1000 nM
IC50, cell viability (CellTiter-Glo, 72 h), MDA-MB-468 cells [3]: > 1000 nM
IC50, cell viability (CellTiter-Glo, 72 h), SKOvr3 cells [3]: > 1000 nM
IC50, cell viability (CellTiter-Glo, 72 h), TMD-8 cells [3]: > 1000 nM
IC50, cell viability (CellTiter-Glo, 72 h), TOV112D cells [3]: > 1000 nM

B10: ADC-Q (antibody, human IgG1, kappa, V domains shown)
VH: B5 VH
VL: B5 VL
modifications: deglycosylated with PNGase F; azido-PEG3-amine put on glutamine residues by microbial transglutaminase, then DBCO-(PEG2-VC-PAB-MMAE)2 via a triazole (chain and positions not stated); DAR 4.4
notes: also called Ab1-DBCO-(PEG2-VC-PAB-MMAE)2
Kd [7]: 0.23 nM

B11: ADC-F (antibody, human IgG1, kappa, V domains shown)
VH: B5 VH
VL: B5 VL
modifications: SC-VC-PAB-DM1 bonded via lysine residues of the antibody (chain and positions not stated)
IC50, cell viability (CellTiter-Glo, 72 h), A2008 cells [3]: > 1000 nM
IC50, cell viability (CellTiter-Glo, 72 h), Bt549 cells [3]: > 1000 nM
IC50, cell viability (CellTiter-Glo, 72 h), DOHH2 cells [3]: > 1000 nM
IC50, cell viability (CellTiter-Glo, 72 h), HBL-1 cells [3]: > 1000 nM
IC50, cell viability (CellTiter-Glo, 72 h), HCC1187 cells [3]: > 1000 nM
IC50, cell viability (CellTiter-Glo, 72 h), JHOM1 cells [3]: > 1000 nM
IC50, cell viability (CellTiter-Glo, 72 h), MDA-MB-468 cells [3]: > 1000 nM
IC50, cell viability (CellTiter-Glo, 72 h), SKOvr3 cells [3]: > 1000 nM
IC50, cell viability (CellTiter-Glo, 72 h), TMD-8 cells [3]: > 1000 nM
IC50, cell viability (CellTiter-Glo, 72 h), TOV112D cells [3]: > 1000 nM

B12: ADC-N (antibody, human IgG1, kappa, V domains shown)
VH: B5 VH
VL: B5 VL
modifications: MAL-PEG4-VC-PAB-DMEA-PNU-159682 bonded via cysteine residues of the antibody (chain and positions not stated)
notes: Antibody-drug conjugate of Ab1; also called Ab1-MAL-PEG4-VC-PAB-DMEA-PNU-159682
Kd [8]: 0.13 nM

B13: ADC-L (antibody, human IgG1, kappa, V domains shown)
VH: B5 VH
VL: B5 VL
modifications: MAL-DPR-VC-PAB-MMAE bonded via cysteine residues of the antibody (chain and positions not stated)
notes: Antibody-drug conjugate of Ab1; also called Ab1-MAL-DPR-VC-PAB-MMAE
Kd [9]: 0.15 nM

B14: ADC-A (antibody, human IgG1, kappa, V domains shown)
VH: B5 VH
VL: B5 VL
modifications: MC-VC-PAB-MMAE bonded via cysteine residues of the antibody (chain and positions not stated); MC-VC-PAB-MMAE bonded via cysteine residues of the antibody (chain and positions not stated); DAR 3.89 to 5.09
notes: Antibody-drug conjugate of Ab1; also called Ab1-MC-VC-PAB-MMAE
IC50, cell viability (CellTiter-Glo, 72 h), A2008 cells [3]: 125 nM
IC50, cell viability (CellTiter-Glo, 72 h), Bt549 cells [3]: 13.5 nM
IC50, cell viability (CellTiter-Glo, 72 h), DOHH2 cells [3]: 129 nM
IC50, cell viability (CellTiter-Glo, 72 h), HBL-1 cells [3]: 118 nM
IC50, cell viability (CellTiter-Glo, 72 h), HCC1187 cells [3]: 6.8 nM
IC50, cell viability (CellTiter-Glo, 72 h), JHOM1 cells [3]: 15.6 nM
IC50, cell viability (CellTiter-Glo, 72 h), MDA-MB-468 cells [3]: 23.5 nM
IC50, cell viability (CellTiter-Glo, 72 h), SKOvr3 cells [3]: 62.6 nM
IC50, cell viability (CellTiter-Glo, 72 h), TMD-8 cells [3]: 122 nM
IC50, cell viability (CellTiter-Glo, 72 h), TOV112D cells [3]: 62.4 nM
EC50 [10]: 0.017 µg/mL
EC50 [11]: 0.0485 µg/mL
EC50 [2]: 0.0216 µg/mL
EC50 [1]: 0.0221 µg/mL
Kd [12]: 0.1 nM
Kd [13]: 0.32 nM

B15: ADC-B (antibody, human IgG1, kappa, V domains shown)
VH: B5 VH
VL: B5 VL
modifications: SMCC-DM1 bonded via lysine residues of the antibody (chain and positions not stated); SMCC-DM1 bonded via lysine residues of the antibody (chain and positions not stated); DAR 3.0 to 3.20
IC50, cell viability (CellTiter-Glo, 72 h), A2008 cells [3]: 49 nM
IC50, cell viability (CellTiter-Glo, 72 h), Bt549 cells [3]: 20.2 nM
IC50, cell viability (CellTiter-Glo, 72 h), DOHH2 cells [3]: 78.3 nM
IC50, cell viability (CellTiter-Glo, 72 h), HBL-1 cells [3]: 70.1 nM
IC50, cell viability (CellTiter-Glo, 72 h), HCC1187 cells [3]: 6.2 nM
IC50, cell viability (CellTiter-Glo, 72 h), JHOM1 cells [3]: 24.3 nM
IC50, cell viability (CellTiter-Glo, 72 h), MDA-MB-468 cells [3]: 18.8 nM
IC50, cell viability (CellTiter-Glo, 72 h), SKOvr3 cells [3]: 78.7 nM
IC50, cell viability (CellTiter-Glo, 72 h), TMD-8 cells [3]: 50 nM
IC50, cell viability (CellTiter-Glo, 72 h), TOV112D cells [3]: 34.2 nM

B16: Ab1 (antibody, human IgG1, kappa, V domains shown)
VH: B5 VH
VL: B5 VL
notes: also called unconjugated Ab1; parental antibody Ab1
EC50 [2]: 0.0164 µg/mL
EC50 [1]: 0.0165 µg/mL
EC50 [14]: 0.0136 µg/mL
EC50 [15]: 0.0328 µg/mL

B17: ADC-R (antibody, human IgG1, kappa, V domains shown)
VH: B5 VH
VL: B5 VL
modifications: deglycosylated with PNGase F; azido-PEG3-amine put on glutamine residues by microbial transglutaminase, then DBCO-PEG4-VC-PAB-DMEA-PNU-159682 via a triazole (chain and positions not stated); DAR 2.1
notes: also called Ab1-DBCO-PEG4-VC-PAB-DMEA-PNU-159682
Kd [16]: 0.25 nM
